System: PBMCs
Experiment: Cytokine secretion from PBMCs stimulated with nuclease-treated live C. acnes (ELISA)
Type: cell-based, human
Settings: live C. acnes digested with nuclease at 37° C. for 1 hour, PBMCs stimulated 24 h
Experimental: FIGS. 3A-3D: PBMCs were stimulated with untreated, heat-killed (HK), Rnase I, or Dnase I treated live CA(HL5PA1), CH (HL110PA4), LPS, or 19 kD (TLR1/2L) for 24 h. Cytokine secretions were measured by ELISA.
Cells purification and culture. Whole blood was obtained from healthy donors who provided written informed consent (UCLA Institutional Review Board). PBMCs were isolated by Ficoll-Paque (Amersham Bioscience) density gradient centrifugation and cultured in RPMI 1640 (Gibco) supplemented with 10% fetal bovine serum (FBS) (Seradigm) at a density of 2.5×10^6/mL in a 24-well flat bottomed plate.
Bacterial treatment. Live bacteria were heat-killed at 95° C. for 10 minutes and cooled on ice before addition of bacteria to cell culture. Live bacteria were digested using RNase I (Promega) or DNase I (Invitrogen) and incubated at 37° C. for 1 hour. Nucleases were inactivated with 0.1% SDS.
Cytokine Quantification. Cell culture supernatants were harvested at 24 hours unless otherwise noted. Cytokines measured by sandwich ELISA using antibody pairs were as follows: IL-18, IL-1β, IFN-β (R&D Duoset), IFN-γ (BD), IL-6, IL-10, TNF-α (Invitrogen).

B1: RNase I: RNase I (Promega), enzyme that catalyzes the hydrolysis of RNA; used to digest live bacteria (protein, UniProt P21338 24-268, looked up)
Ribonuclease I: LALQAKQYGDFDRYVLALSWQTGFCQSQHDRNRNERDECRLQTETTNKADFLTVHGLWPGLPKSVAARGVDERRWMRFGCATRPIPNLPEARASRMCSSPETGLSLETAAKLSEVMPGAGGRSCLERYEYAKHGACFGFDPDAYFGTMVRLNQEIKESEAGKFLADNYGKTVSRRDFDAAFAKSWGKENVKAVKLTCQGNPAYLTEIQISIKADAINAPLSANSFLPQPHPGNCGKTFVIDKAGY
- IFN-γ secretion from PBMCs: eliminated
- IL-6 secretion from PBMCs: eliminated
- IL-10 secretion from PBMCs: eliminated
- TNF-α secretion from PBMCs: eliminated
- IFN-γ secretion from PBMCs (listed as RNase): abrogated

Reference: patent US20220143153A1, “COMPOSITIONS AND METHODS FOR TREATING ACNE” (priority 2019, published 2022)
